Consider one protein from article PMC7988011, “NAC blocks Cystatin C amyloid complex aggregation in a cell system and in skin of HCCAA patients” (Nature Communications, 2021).

Where “and” joins values, the source holds several entries; their conditions need not be identical. Equal entries are not always repeated.

One data set has as its target P01034. Description: non-reducing SDS-PAGE with Western blot; supernatants and cellular extracts incubated with reduced glutathione (3 mM) at 37 °C before electrophoresis; HMW species quantitated by densitometry. The note with it: other: non-reducing SDS-PAGE with Western blot.
Data set [1] deals with the molecule itself. Description: non-reducing SDS-PAGE with Western blot; lysates (1% NP-40 buffer) and supernatants of stable HEK-293T cells; 2% SDS sample buffer without reducing agent, not heated; NuPAGE 4-12% Bis-Tris; blotted with anti-cystatin C MAB1196.

A word on the stoichiometry N: it is a count of units in the complex or per binding partner.

B1: L68Q variant of human cystatin C (natural protein, UniProt P01034 27-146, looked up)
chain: SSPGKPPRLVGGPMDASVEEEGVRRALDFAVGEYNKASNDMYHSRALQVVRARKQIVAGVNYFLDVEQGRTTCTKTQPNLDNCPFHDQPHLKRKAFCSFQIYAVPWQGTMTLSKSTCQDA
notes: Vector pBABE-CMV-Puro; also called L68Q-hCC; hCC L68Q
In the case of B1, the “percent reduction of HMW species with 3 mM GSH (secreted fraction)” value with P01034 is recorded as “≈90% reduction of the HMW in the secreted fraction”. For the same protein, the “stoichiometry N” value in data set [1] is 2 and 3 and 4.
